The target in the assay is envelope protein domain III from dengue virus serotype 2 (DENV2 DIII) (dengue virus serotype 2). The experiment in a line: ITC. Background: In ITC the heat of successive injections is recorded.
For the substance scFv4E11 bearing the AlaH55Glu mutation, the Kd turned out to be 12.8 nM, the other is -1.89 kcal/mol and the stoichiometry N was 1.04 sites.

“scFv513 bearing the single mutation GluH55Ala” returned an equilibrium dissociation constant (Kd) of 28.7 nM, an other of -1.78 kcal/mol and a stoichiometry N of 0.99 sites.

“single-chain variable fragment of humanized monoclonal antibody 513 (scFv513), wild type” gave a Kd of 1.64 nM, an other of -4.28 kcal/mol and a stoichiometry N of 1.01 sites.

“single-chain variable fragment of murine monoclonal antibody 4E11 (scFv4E11), wild type”: the Kd stood at 30.7 nM, the other was -2.09 kcal/mol and the stoichiometry N worked out at 0.96 sites.

In general, Kd refers to a measure of binding affinity in units of concentration. A lower Kd goes with tighter binding. What is called stoichiometry N is a count of units in the complex or per binding partner.
